The values that follow are results of earlier work, collected in paper PMC9897510.

Targets include FhuA (Escherichia coli) (UniProt P06971); FOXM1c (Homo sapiens) (UniProt Q08050); FOXM1b (Homo sapiens) (UniProt Q08050).
The target of data set [1] is atrial natriuretic factor receptor (UniProt P16066).
Sequence of UniProt P16066 (P16066 33-1061): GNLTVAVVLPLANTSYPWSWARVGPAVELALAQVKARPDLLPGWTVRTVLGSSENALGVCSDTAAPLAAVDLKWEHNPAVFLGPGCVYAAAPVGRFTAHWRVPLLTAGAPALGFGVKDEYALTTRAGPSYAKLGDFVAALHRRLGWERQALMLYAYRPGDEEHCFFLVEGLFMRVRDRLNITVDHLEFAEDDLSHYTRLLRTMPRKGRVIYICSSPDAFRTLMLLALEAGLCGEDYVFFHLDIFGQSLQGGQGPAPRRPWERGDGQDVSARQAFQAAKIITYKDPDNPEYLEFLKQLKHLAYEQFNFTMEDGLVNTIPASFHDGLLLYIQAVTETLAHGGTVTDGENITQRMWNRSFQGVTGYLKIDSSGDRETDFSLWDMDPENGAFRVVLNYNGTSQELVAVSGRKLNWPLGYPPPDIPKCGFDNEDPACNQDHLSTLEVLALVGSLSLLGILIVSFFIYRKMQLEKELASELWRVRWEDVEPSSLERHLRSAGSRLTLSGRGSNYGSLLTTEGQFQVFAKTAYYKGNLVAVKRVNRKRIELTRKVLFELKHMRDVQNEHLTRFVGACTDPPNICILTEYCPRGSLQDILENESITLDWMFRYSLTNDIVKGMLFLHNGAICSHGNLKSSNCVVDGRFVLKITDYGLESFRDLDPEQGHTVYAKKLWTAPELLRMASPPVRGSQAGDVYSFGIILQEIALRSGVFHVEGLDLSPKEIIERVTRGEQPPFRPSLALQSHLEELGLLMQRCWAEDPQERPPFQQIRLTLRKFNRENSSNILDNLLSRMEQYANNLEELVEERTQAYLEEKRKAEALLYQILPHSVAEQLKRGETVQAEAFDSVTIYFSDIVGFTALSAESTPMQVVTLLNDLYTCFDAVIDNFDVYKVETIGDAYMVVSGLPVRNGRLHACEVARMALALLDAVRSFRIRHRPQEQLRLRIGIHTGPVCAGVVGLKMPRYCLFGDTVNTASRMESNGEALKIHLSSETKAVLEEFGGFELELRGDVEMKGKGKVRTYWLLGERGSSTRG

Sequence of UniProt P06971 (P06971 34-747): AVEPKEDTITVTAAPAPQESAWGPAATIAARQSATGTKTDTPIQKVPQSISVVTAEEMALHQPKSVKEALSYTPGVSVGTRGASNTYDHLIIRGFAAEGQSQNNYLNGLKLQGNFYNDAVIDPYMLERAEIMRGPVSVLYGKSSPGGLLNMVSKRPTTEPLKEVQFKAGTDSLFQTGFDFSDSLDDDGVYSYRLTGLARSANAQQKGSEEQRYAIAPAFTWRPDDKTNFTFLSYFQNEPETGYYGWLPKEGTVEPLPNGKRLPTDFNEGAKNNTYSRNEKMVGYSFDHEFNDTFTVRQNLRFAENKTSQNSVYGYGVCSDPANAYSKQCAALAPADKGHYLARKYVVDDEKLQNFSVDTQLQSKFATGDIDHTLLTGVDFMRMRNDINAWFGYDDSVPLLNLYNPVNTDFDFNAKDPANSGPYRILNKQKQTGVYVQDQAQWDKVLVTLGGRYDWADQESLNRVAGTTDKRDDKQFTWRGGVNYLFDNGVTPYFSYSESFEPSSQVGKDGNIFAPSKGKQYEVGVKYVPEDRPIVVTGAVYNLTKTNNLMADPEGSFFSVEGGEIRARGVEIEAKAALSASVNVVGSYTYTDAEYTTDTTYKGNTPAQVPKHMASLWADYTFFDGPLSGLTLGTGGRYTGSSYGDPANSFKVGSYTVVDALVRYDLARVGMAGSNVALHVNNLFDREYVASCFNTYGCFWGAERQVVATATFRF

In general, Kd refers to the concentration at which binding is half-saturated. In the case of Microcin J25 (from UniProt Q9X2V7), the Kd with FhuA (Escherichia coli) is 1.2 µM. Consider anantin (from UniProt Q7M0J9), for which the Kd in data set [1] was 0.6 µM. For orientation: Ki means the dissociation constant of the complex between target and ligand, obtained from inhibition or displacement. For the substance thiostrepton (from UniProt P0C8P8), the Ki was 11 µM in the data set with FOXM1c (Homo sapiens) and 31 µM in the data set with FOXM1b (Homo sapiens).
